Test results from patent US20120082661A1 (Biogen, published 2012).

T1: human BCMA (B cell maturation antigen) (human, UniProt Q02223 1-184)
T1 chain: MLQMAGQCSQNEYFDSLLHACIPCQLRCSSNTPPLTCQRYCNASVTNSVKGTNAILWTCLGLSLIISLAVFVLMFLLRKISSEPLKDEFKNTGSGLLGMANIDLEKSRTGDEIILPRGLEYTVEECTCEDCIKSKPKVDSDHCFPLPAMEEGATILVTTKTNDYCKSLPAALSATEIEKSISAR

B1: chC12A3.2 (antibody, human IgG1, kappa, V domains shown)
VH: QIQLVQSGPELKKPGETVKISCKASGYTFRHYSMNWVKQAPGKGLKWMGRINTESGVPIYADDFKGRFAFSVETSASTAYLVINNLKDEDTASYFCSNDYLYSLDFWGQGTTLTVSS
VL: DIVLTQSPPSLAMSLGKRATISCRASESVTILGSHLIYWYQQKPGQPPTLLIQLASNVQTGVPARFSGSGSRTDFTLTIDPVEEDDVAVYYCLQSRTIPRTFGGGTKLEIKR
B2: chC11D5.3 (antibody, human IgG1, kappa, V domains shown)
VH: QIQLVQSGPELKKPGETVKISCKASGYTFTDYSINWVKRAPGKGLKWMGWINTETREPAYAYDFRGRFAFSLETSASTAYLQINNLKYEDTATYFCALDYSYAMDYWGQGTTLTVSS
VL: DIVLTQSPPSLAMSLGKRATISCRASESVTILGSHLIHWYQQKPGQPPTLLIQLASNVQTGVPARFSGSGSRTDFTLTIDPVEEDDVAVYYCLQSRTIPRTFGGGTKLEIKR
B3: chC13F12.1 (antibody, human IgG1, kappa, V domains shown)
VH: QIQLVQSGPELKKPGETVKISCKASGYTFTHYSMNWVKQAPGKGLKWMGRINTETGEPLYADDFKGRFAFSLETSASTAYLVINNLKNEDTATFFCSNDYLYSCDYWGQGTTLTVSS
VL: DIVLTQSPPSLAMSLGKRATISCRASESVTILGSHLIYWYQQKPGQPPTLLIQLASNVQTGVPARFSGSGSRTDFTLTIDPVEEDDVAVYYCLQSRTIPRTFGGGTKLEIKR
B4: chA7D12.2 (antibody, human IgG1, kappa, V domains shown)
VH: QIQLVQSGPDLKKPGETVKLSCKASGYTFTNFGMNWVKQAPGKGFKWMAWINTYTGESYFADDFKGRFAFSVETSATTAYLQINNLKTEDTATYFCARGEIYYGYDGGFAYWGQGTLVTVSA
VL: DVVMTQSHRFMSTSVGDRVSITCRASQDVNTAVSWYQQKPGQSPKLLIFSASYRYTGVPDRFTGSGSGADFTLTISSVQAEDLAVYYCQQHYSTPWTFGGGTKLDIKR

Legend:
[1] = molecular target: T1, human BCMA (B cell maturation antigen); assay: cell-based or functional assay
[2] = molecular target: T1, human BCMA (B cell maturation antigen); assay: cell-based or functional assay

Binder	% Killing at 1 nM (ADCC of U266 cells, PBMC effectors, LDH release) [1] [%]	% Killing at 1 nM (ADCC of JJN-3 cells, PBMC effectors, LDH release) [2] [%]
B1	32	5
B2	18	–
B3	20	3
B4	10	20
